Our source for the IC50 values is article doi:10.1101/2024.04.26.591398 (2024).

The experiment deals with T1, FITC-casein (FITC label (FITC-casein)).
T1 chain: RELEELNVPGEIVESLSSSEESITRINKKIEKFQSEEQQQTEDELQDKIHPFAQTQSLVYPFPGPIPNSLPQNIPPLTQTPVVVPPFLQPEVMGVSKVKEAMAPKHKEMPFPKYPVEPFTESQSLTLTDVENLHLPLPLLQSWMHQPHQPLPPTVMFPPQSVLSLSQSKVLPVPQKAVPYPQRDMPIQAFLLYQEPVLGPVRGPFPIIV
Description: FP; competition: Ydj1 dissociating FITC-casein from Hsp104 R366E, ATPγS.

B1: Ydj1 (natural protein)
chain: MVKETKFYDILGVPVTATDVEIKKAYRKCALKYHPDKNPSEEAAEKFKEASAAYEILSDPEKRDIYDQFGEDGLSGAGGAGGFPGGGFGFGDDIFSQFFGAGGAQRPRGPQRGKDIKHEISASLEELYKGRTAKLALNKQILCKECEGRGGKKGAVKKCTSCNGQGIKFVTRQMGPMIQRFQTECDVCHGTGDIIDPKDRCKSCNGKKVENERKILEVHVEPGMKDGQRIVFKGEADQAPDVIPGDVVFIVSERPHKSFKRDGDDLVYEAEIDLLTAIAGGEFALEHVSGDWLKVGIVPGEVIAPGMRKVIEGKGMPIPKYGGYGNLIIKFTIKFPENHFTSEENLKKLEEILPPRIVPAIPKKATVDECVLADFDPAKYNRTRASRGGANYDSDEEEQGGEGVQCASQ
For the molecule B1, the IC50 was approximately 20 µM.

One may read the IC50 as the concentration that gives 50% inhibition. A higher IC50 goes with weaker potency in that assay.
